# Measurements reported in article PMC5760527 (2018).
# Target: Cx43 EL1 peptide extracellular loop 1 (EL1) (Mus musculus, UniProt P23242)
# Test: SPR
# Sequence of Cx43 EL1 peptide extracellular loop 1 (EL1) (P23242 45-76): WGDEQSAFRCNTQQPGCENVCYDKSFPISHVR
binder,measurement,value
QPGCEN [P4 peptide (Cx43 mimetic)],Kd,20 µM
